From the RNAGym collection of RNA variant scans (doi:10.7554/elife.80360)

B1: Hairpin Ribozyme (parent)
chain: GUCCUCUUUCACGUGCGCGUGAAAGAGAGAAGUGAACCAGAGAAACACACGUUGUGGUAUAUUACCUGGUA

Variants of: B1
Experiment: self-cleavage, relative activity (ratio to wild type); higher = more cleavage; co-transcriptional

Variant | self-cleavage
GUCCUCUUUCACGUGCGCGUGAAAGAGAGAAGUGAACCAGAGAAACACGCGUCGUGGUAUAUUACCUGGUA [A49G U53C] | 0.363
GUCCUCUUUCACGUGCGCGUGAAAGAGAGAAGUGAACCAGAGAAACACGCGUGGUGGUAUAUUACCUGGUA [A49G U53G] | 0.44
GUCCUCUUUCACGUGCGCGUGAAAGAGAGAAGUGAACCAGAGAAACACGCGUUGUGGUAUAUUACCUGGAA [A49G U70A] | 0.377
GUCCUCUUUCACGUGCGCGUGAAAGAGAGAAGUGAACCAGAGAAACACGCGUUGUGGUAUAUUACCUGGCA [A49G U70C] | 0.262
GUCCUCUUUCACGUGCGCGUGAAAGAGAGAAGUGAACCAGAGAAACACGCGUUGUGGUAUAUUACCUGGGA [A49G U70G] | 0.453
GUCCUCUUUCACGUGCGCGUGAAAGAGAGAAGUGAACCAGAGAAACACUCGUUGUUGUAUAUUACCUGGUA [A49U G56U] | 0.147
GUCCUCUUUCACGUGCGCGUGAAAGAGAGAAGUGAACCAGAGAAACACUCGUUGUCGUAUAUUACCUGGUA [A49U G56C] | 0.102
GUCCUCUUUCACGUGCGCGUGAAAGAGAGAAGUGAACCAGAGAAACAUACGUAGUGGUAUAUUACCUGGUA [C48U U53A] | 0.0973
GUCCUCUUUCACGUGCGCGUGAAAGAGAGAAGUGAACCAGAGAAACAUACGUGGUGGUAUAUUACCUGGUA [C48U U53G] | 0.112
GUCCUCUUUCACGUGCGCGUGAAAGAGAGAAGUGAACCAGAGAAACAUGCGUUGUGGUAUAUUACCUGGUA [C48U A49G] | 0.153
GUCCUCUUUCACGUGCGCGUGAAAGAGAGAAGUGAACCAGAGAAACAUUCGUUGUGGUAUAUUACCUGGUA [C48U A49U] | 0.208
GUCCUCUUUCACGUGCGCGUGAAAGAGAGAAGUGAACCAGAGAAACACGCGUUGUGGUAUAUCACCUGGUA [A49G U63C] | 0.253
GUCCUCUUUCACGUGCGCGUGAAAGAGAGAAGUGAACCAGAGAAACACGCGUUGUGGUAUAUAACCUGGUA [A49G U63A] | 0.0688
GUCCUCUUUCACGUGCGCGUGAAAGAGAGAAGUGAACCAGAGAAACACUCGUUGUGGUAUAUUAUCUGGUA [A49U C65U] | 0.0248
GUCCUCUUUCACGUGCGCGUGAAAGAGAGAAGUGAACCAGAGAAACAUACGUUGUGGUAUAGUACCUGGUA [C48U U62G] | 0.108
GUCCUCUUUCACGUGCGCGUGAAAGAGAGAAGUGAACCAGAGAAACACUCGCUGUGGUAUAUUACCUGGUA [A49U U52C] | 0.202
GUCCUCUUUCACGUGCGCGUGAAAGAGAGAAGUGAACCAGAGAAACACUCGGUGUGGUAUAUUACCUGGUA [A49U U52G] | 0.364
GUCCUCUUUCACGUGCGCGUGAAAGAGAGAAGUGAACCAGAGAAACAUACGUUGUGGUAUAUUACCUGGUA [C48U] | 0.158
GUCCUCUUUCACGUGCGCGUGAAAGAGAGAAGUGAACCAGAGAAACACUCGUUGCGGUAUAUUACCUGGUA [A49U U55C] | 0.349
GUCCUCUUUCACGUGCGCGUGAAAGAGAGAAGUGAACCAGAGAAACACCCGUAGUGGUAUAUUACCUGGUA [A49C U53A] | 0.0758
GUCCUCUUUCACGUGCGCGUGAAAGAGAGAAGUGAACCAGAGAAACACCCGUGGUGGUAUAUUACCUGGUA [A49C U53G] | 0.0631
GUCCUCUUUCACGUGCGCGUGAAAGAGAGAAGUGAACCAGAGAAACACCCGUCGUGGUAUAUUACCUGGUA [A49C U53C] | 0.27
GUCCUCUUUCACGUGCGCGUGAAAGAGAGAAGUGAACCAGAGAAACACCCGUUGUGGUAUCUUACCUGGUA [A49C A61C] | 0.124
GUCCUCUUUCACGUGCGCGUGAAAGAGAGAAGUGAACCAGAGAAACACCCGUUGUGGUAGAUUACCUGGUA [A49C U60G] | 0.166
GUCCUCUUUCACGUGCGCGUGAAAGAGAGAAGUGAACCAGAGAAACACCCGUUGUGAUAUAUUACCUGGUA [A49C G57A] | 0.193
GUCCUCUUUCACGUGCGCGUGAAAGAGAGAAGUGAACCAGAGAAACAUACUUUGUGGUAUAUUACCUGGUA [C48U G51U] | 0.165

Variant | self-cleavage
GUCCUCUUUCACGUGCGCGUGAAAGAGAGAAGUGAACCAGAGAAACAUACGUUGUCGUAUAUUACCUGGUA [C48U G56C] | 0.104
GUCCUCUUUCACGUGCGCGUGAAAGAGAGAAGUGAACCAGAGAAACACCCGUUGUGGUAUAUUACCUGAUA [A49C G69A] | 0.139
GUCCUCUUUCACGUGCGCGUGAAAGAGAGAAGUGAACCAGAGAAACACCCGUUGUGGUAUAUUACCUGUUA [A49C G69U] | 0.136
GUCCUCUUUCACGUGCGCGUGAAAGAGAGAAGUGAACCAGAGAAACACGCUUUGUGGUAUAUUACCUGGUA [A49G G51U] | 0.532
GUCCUCUUUCACGUGCGCGUGAAAGAGAGAAGUGAACCAGAGAAACACCCGUUUUGGUAUAUUACCUGGUA [A49C G54U] | 0.216
GUCCUCUUUCACGUGCGCGUGAAAGAGAGAAGUGAACCAGAGAAACACCAGUUGUGGUAUAUUACCUGGUA [A49C C50A] | 0.139
GUCCUCUUUCACGUGCGCGUGAAAGAGAGAAGUGAACCAGAGAAACACGCGUUGUGUUAUAUUACCUGGUA [A49G G57U] | 0.22
GUCCUCUUUCACGUGCGCGUGAAAGAGAGAAGUGAACCAGAGAAACACGCGUUGUGGUAUAUUACCUGUUA [A49G G69U] | 0.148
GUCCUCUUUCACGUGCGCGUGAAAGAGAGAAGUGAACCAGAGAAACACGCGUUGUGGUAUACUACCUGGUA [A49G U62C] | 0.154
GUCCUCUUUCACGUGCGCGUGAAAGAGAGAAGUGAACCAGAGAAACACGCGUUGUGGAAUAUUACCUGGUA [A49G U58A] | 0.217
GUCCUCUUUCACGUGCGCGUGAAAGAGAGAAGUGAACCAGAGAAACACGCGUUGUGGUCUAUUACCUGGUA [A49G A59C] | 0.194
GUCCUCUUUCACGUGCGCGUGAAAGAGAGAAGUGAACCAGAGAAACACGCGUUGUGGUGUAUUACCUGGUA [A49G A59G] | 0.145
GUCCUCUUUCACGUGCGCGUGAAAGAGAGAAGUGAACCAGAGAAACACUUGUUGUGGUAUAUUACCUGGUA [A49U C50U] | 0.139
GUCCUCUUUCACGUGCGCGUGAAAGAGAGAAGUGAACCAGAGAAACACCCGUUGUCGUAUAUUACCUGGUA [A49C G56C] | 0.12
GUCCUCUUUCACGUGCGCGUGAAAGAGAGAAGUGAACCAGAGAAACACUCGUUGUGGAAUAUUACCUGGUA [A49U U58A] | 0.187
GUCCUCUUUCACGUGCGCGUGAAAGAGAGAAGUGAACCAGAGAAACACUCGUUGUGGGAUAUUACCUGGUA [A49U U58G] | 0.15
GUCCUCUUUCACGUGCGCGUGAAAGAGAGAAGUGAACCAGAGAAACACUCGUUGUGGCAUAUUACCUGGUA [A49U U58C] | 0.28
GUCCUCUUUCACGUGCGCGUGAAAGAGAGAAGUGAACCAGAGAAACACUCGUUGUGGUAAAUUACCUGGUA [A49U U60A] | 0.281
GUCCUCUUUCACGUGCGCGUGAAAGAGAGAAGUGAACCAGAGAAACAUACGUUGUGGUAUAUUACCUGGCA [C48U U70C] | 0.0914
GUCCUCUUUCACGUGCGCGUGAAAGAGAGAAGUGAACCAGAGAAACAGACGUUGUGGUAUAUUACCGGGUA [C48G U67G] | 0.113
GUCCUCUUUCACGUGCGCGUGAAAGAGAGAAGUGAACCAGAGAAACACGCGUUUUGGUAUAUUACCUGGUA [A49G G54U] | 0.541
GUCCUCUUUCACGUGCGCGUGAAAGAGAGAAGUGAACCAGAGAAACACGCGUUAUGGUAUAUUACCUGGUA [A49G G54A] | 0.64
GUCCUCUUUCACGUGCGCGUGAAAGAGAGAAGUGAACCAGAGAAACACGCGUUCUGGUAUAUUACCUGGUA [A49G G54C] | 0.277
GUCCUCUUUCACGUGCGCGUGAAAGAGAGAAGUGAACCAGAGAAACACCCGUUGUGGUAUAUUACAUGGUA [A49C C66A] | 0.28
GUCCUCUUUCACGUGCGCGUGAAAGAGAGAAGUGAACCAGAGAAACAUACGUUGUGGUAUGUUACCUGGUA [C48U A61G] | 0.177
GUCCUCUUUCACGUGCGCGUGAAAGAGAGAAGUGAACCAGAGAAACACUCGUUGUGGUAUAUUACCUAGUA [A49U G68A] | 0.172

Variant | self-cleavage
GUCCUCUUUCACGUGCGCGUGAAAGAGAGAAGUGAACCAGAGAAACACCCGUUGUGGUAUAUUACCGGGUA [A49C U67G] | 0.109
GUCCUCUUUCACGUGCGCGUGAAAGAGAGAAGUGAACCAGAGAAACACCCGUUGUGGUAUAUUACCCGGUA [A49C U67C] | 0.0984
GUCCUCUUUCACGUGCGCGUGAAAGAGAGAAGUGAACCAGAGAAACACCCGUUGUGGUAUAUUACCAGGUA [A49C U67A] | 0.13
GUCCUCUUUCACGUGCGCGUGAAAGAGAGAAGUGAACCAGAGAAACACUCGUGGUGGUAUAUUACCUGGUA [A49U U53G] | 0.167
GUCCUCUUUCACGUGCGCGUGAAAGAGAGAAGUGAACCAGAGAAACACUCGUAGUGGUAUAUUACCUGGUA [A49U U53A] | 0.139
GUCCUCUUUCACGUGCGCGUGAAAGAGAGAAGUGAACCAGAGAAACACUCGUCGUGGUAUAUUACCUGGUA [A49U U53C] | 0.124
GUCCUCUUUCACGUGCGCGUGAAAGAGAGAAGUGAACCAGAGAAACAUACGUUGUGGAAUAUUACCUGGUA [C48U U58A] | 0.214
GUCCUCUUUCACGUGCGCGUGAAAGAGAGAAGUGAACCAGAGAAACAUACGUUGUGGGAUAUUACCUGGUA [C48U U58G] | 0.152
GUCCUCUUUCACGUGCGCGUGAAAGAGAGAAGUGAACCAGAGAAACAUACGUUGUGGUAUAUUACCUGGUG [C48U A71G] | 0.242
GUCCUCUUUCACGUGCGCGUGAAAGAGAGAAGUGAACCAGAGAAACACGCGUUGUCGUAUAUUACCUGGUA [A49G G56C] | 0.155
GUCCUCUUUCACGUGCGCGUGAAAGAGAGAAGUGAACCAGAGAAACACCCGUUGUGGUAUAGUACCUGGUA [A49C U62G] | 0.225
GUCCUCUUUCACGUGCGCGUGAAAGAGAGAAGUGAACCAGAGAAACACGCGUUGUGGUAUAUUAACUGGUA [A49G C65A] | 0.42
GUCCUCUUUCACGUGCGCGUGAAAGAGAGAAGUGAACCAGAGAAACACGCGUUGUGGUAUAUUACCUCGUA [A49G G68C] | 0.307
GUCCUCUUUCACGUGCGCGUGAAAGAGAGAAGUGAACCAGAGAAACACUCGUUAUGGUAUAUUACCUGGUA [A49U G54A] | 0.477
GUCCUCUUUCACGUGCGCGUGAAAGAGAGAAGUGAACCAGAGAAACAUACGUUGUGGUUUAUUACCUGGUA [C48U A59U] | 0.0991
GUCCUCUUUCACGUGCGCGUGAAAGAGAGAAGUGAACCAGAGAAACAUACGUUGUGGUAUAUUACAUGGUA [C48U C66A] | 0.176
GUCCUCUUUCACGUGCGCGUGAAAGAGAGAAGUGAACCAGAGAAACAUACGUUGUGGUAUAUUACCUUGUA [C48U G68U] | 0.097
GUCCUCUUUCACGUGCGCGUGAAAGAGAGAAGUGAACCAGAGAAACACCCGUUGUGGUAUAUUGCCUGGUA [A49C A64G] | 0.0856
GUCCUCUUUCACGUGCGCGUGAAAGAGAGAAGUGAACCAGAGAAACACCCGUUGUGGUAUAUUCCCUGGUA [A49C A64C] | 0.168
GUCCUCUUUCACGUGCGCGUGAAAGAGAGAAGUGAACCAGAGAAACAUACGCUGUGGUAUAUUACCUGGUA [C48U U52C] | 0.194
GUCCUCUUUCACGUGCGCGUGAAAGAGAGAAGUGAACCAGAGAAACACCCGUUGUGGUAUAUUACCUGGUC [A49C A71C] | 0.291
GUCCUCUUUCACGUGCGCGUGAAAGAGAGAAGUGAACCAGAGAAACAUACGUUGUGGUAUAUUACCGGGUA [C48U U67G] | 0.0927
GUCCUCUUUCACGUGCGCGUGAAAGAGAGAAGUGAACCAGAGAAACACGCGUUGUGGUAUAUUUCCUGGUA [A49G A64U] | 0.0802
GUCCUCUUUCACGUGCGCGUGAAAGAGAGAAGUGAACCAGAGAAACACUCGUUGUGCUAUAUUACCUGGUA [A49U G57C] | 0.0724
